For four molecules, Kd results are on record in doi:10.1101/2020.05.01.070730 (bioRxiv, 2020).

Assay in all cases: EMSA
In general terms: Mobility shift assays separate free from complexed probe on a gel.

The target of one data set is T1, MutS N279A (Pseudomonas aeruginosa, UniProt Q9HY08 1-855, N279A).
T1 sequence: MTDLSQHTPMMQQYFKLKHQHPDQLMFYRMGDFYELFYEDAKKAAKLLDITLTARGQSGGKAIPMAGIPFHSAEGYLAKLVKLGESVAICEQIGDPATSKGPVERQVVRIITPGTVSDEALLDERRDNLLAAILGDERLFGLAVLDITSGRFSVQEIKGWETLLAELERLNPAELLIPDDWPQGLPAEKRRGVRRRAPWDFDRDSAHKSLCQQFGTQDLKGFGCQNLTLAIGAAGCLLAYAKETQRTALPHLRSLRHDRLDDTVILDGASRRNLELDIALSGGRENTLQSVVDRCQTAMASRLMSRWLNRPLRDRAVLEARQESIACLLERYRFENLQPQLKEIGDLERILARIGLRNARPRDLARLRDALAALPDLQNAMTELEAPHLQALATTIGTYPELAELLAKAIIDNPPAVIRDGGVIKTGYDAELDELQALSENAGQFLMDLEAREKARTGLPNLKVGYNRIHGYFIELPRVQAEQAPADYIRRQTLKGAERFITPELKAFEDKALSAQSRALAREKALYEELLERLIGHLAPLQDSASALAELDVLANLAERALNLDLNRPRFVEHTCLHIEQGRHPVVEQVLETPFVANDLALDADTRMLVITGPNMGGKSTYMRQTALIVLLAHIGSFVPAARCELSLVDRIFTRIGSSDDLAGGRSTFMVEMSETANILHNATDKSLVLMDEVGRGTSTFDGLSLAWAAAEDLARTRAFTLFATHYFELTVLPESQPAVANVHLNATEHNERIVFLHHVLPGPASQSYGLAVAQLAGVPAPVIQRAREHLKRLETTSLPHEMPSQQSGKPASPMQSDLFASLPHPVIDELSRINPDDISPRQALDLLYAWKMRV

The target in a further data set is T2, MutS (Pseudomonas aeruginosa, UniProt Q9HY08 1-855).
T2 sequence: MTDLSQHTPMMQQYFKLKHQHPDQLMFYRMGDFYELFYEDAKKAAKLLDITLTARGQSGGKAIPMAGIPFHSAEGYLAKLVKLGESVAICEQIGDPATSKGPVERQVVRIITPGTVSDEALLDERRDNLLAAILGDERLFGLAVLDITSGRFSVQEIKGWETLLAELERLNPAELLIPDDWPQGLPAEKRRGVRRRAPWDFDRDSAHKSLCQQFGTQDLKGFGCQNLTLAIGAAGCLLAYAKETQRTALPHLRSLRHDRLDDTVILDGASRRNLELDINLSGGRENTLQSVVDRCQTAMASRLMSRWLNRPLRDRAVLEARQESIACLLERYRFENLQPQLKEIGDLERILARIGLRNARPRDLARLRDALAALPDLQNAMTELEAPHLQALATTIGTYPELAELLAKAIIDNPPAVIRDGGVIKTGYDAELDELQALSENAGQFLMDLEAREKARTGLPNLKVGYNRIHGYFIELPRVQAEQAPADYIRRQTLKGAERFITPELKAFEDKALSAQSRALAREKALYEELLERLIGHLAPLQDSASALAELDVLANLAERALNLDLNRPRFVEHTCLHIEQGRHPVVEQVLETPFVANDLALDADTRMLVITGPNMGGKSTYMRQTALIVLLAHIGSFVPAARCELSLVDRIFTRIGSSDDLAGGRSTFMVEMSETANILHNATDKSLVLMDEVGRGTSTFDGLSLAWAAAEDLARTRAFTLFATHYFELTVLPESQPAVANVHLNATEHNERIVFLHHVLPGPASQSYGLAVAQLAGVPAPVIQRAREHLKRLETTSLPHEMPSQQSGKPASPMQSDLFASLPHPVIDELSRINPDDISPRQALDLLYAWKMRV

In a further data set the target is T3, MutS R272A (Pseudomonas aeruginosa, UniProt Q9HY08 1-855, R272A).
T3 sequence: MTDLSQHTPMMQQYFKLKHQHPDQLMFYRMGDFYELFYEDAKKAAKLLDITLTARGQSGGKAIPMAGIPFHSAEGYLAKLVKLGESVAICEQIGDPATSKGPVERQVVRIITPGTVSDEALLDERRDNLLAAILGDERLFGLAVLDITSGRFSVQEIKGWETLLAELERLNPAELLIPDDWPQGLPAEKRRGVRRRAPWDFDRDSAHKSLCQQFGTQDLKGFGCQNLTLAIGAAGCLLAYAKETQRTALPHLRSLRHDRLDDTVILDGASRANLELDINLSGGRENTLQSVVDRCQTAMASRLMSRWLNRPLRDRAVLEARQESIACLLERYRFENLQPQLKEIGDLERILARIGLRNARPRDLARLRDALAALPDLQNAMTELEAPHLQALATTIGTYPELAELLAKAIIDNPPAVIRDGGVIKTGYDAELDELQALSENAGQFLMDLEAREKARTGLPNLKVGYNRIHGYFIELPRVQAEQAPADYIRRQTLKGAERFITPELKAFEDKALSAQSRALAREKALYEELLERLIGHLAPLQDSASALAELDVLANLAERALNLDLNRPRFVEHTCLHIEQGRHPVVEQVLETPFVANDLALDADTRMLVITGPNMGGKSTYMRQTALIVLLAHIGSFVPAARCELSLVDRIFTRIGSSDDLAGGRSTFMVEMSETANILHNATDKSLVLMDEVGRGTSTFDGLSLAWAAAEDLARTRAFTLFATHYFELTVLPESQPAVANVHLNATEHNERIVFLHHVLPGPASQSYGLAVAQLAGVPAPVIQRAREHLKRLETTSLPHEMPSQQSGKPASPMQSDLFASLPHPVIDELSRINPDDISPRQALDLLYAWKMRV

B1: GT-pDNA (GT 8 nt from 3'-OH) (dsDNA)
DNA 1: ATGTGAATCAGTATGGTTGCTATCTGC
DNA 2: ATTTCCTTCAGCAGATAGTAACCATACTGATTCACAT
As for B1, the results for the Kd with MutS N279A, with MutS and with MutS R272A were 63.2 ± 2.4 nM, 20 ± 0.1 nM and 49.3 ± 1 nM, respectively.

B2: dsDNA (dsDNA)
DNA 1: ATGTGAATCAGTATGGTTACTATCTGCTGAAGGAAAT
DNA 2: ATTTCCTTCAGCAGATAGTAACCATACTGATTCACAT
For B2, the values for the Kd in the data set with MutS N279A, with MutS and in the data set with MutS R272A were 358 ± 36.9 nM, 331 ± 15.9 nM and 309 ± 20.9 nM, respectively.

B3: GT-dsDNA (GT 18 nt from 3' end) (dsDNA)
DNA 1: ATGTGAATCAGTATGGTTGCTATCTGCTGAAGGAAAT
DNA 2: ATTTCCTTCAGCAGATAGTAACCATACTGATTCACAT
Regarding B3, the Kd (as a rule, the concentration at which binding is half-saturated) in the data set with MutS N279A stood at 41.3 ± 5.2 nM; in the data set with MutS, 35 ± 0.9 nM; with MutS R272A, 38.2 ± 0.7 nM.

B4: pDNA (AT) (dsDNA)
DNA 1: ATGTGAATCAGTATGGTTACTATCTGC
DNA 2: ATTTCCTTCAGCAGATAGTAACCATACTGATTCACAT
For the molecule B4, the Kd with MutS N279A worked out at 430 ± 18 nM; in the data set with MutS it was 50.7 ± 2.3 nM; with MutS R272A it was 143 ± 8.6 nM.
